Source: patent US9120851B2, “Human antibodies to human angiopoietin-like protein 4” (Regeneron Pharmaceuticals, Inc., priority 2009, dated 2015)
Numbering of substitutions follows the chain as printed.

T1: hANGPTL4(26-406)-His (Homo sapiens, UniProt Q9BY76)
T1 construct: purchased R&D Systems
T1 sequence (Q9BY76 26-406): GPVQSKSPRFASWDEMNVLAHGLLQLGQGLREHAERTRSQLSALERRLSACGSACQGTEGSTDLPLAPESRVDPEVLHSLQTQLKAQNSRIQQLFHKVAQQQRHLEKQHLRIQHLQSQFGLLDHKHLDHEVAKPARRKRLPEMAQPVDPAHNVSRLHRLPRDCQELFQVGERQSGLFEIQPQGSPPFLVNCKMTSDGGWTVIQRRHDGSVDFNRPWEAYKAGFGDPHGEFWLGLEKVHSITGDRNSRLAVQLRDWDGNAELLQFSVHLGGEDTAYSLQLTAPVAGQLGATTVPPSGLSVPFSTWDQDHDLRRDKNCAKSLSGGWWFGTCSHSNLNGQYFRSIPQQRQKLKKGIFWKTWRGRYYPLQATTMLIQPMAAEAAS

B1: H1H268P: anti-hANGPTL4 antibody, hIgG1 isotype, HCVR/LCVR SEQ ID NOs 42/44 (antibody, V domains shown)
VH: QVQLQESGAGLLKPSETLSLTCTVYGGSFSIHHWTWIRHPPGKGLEWIGEINHRGSTNYNPSLKSRVTISIDTSKNQFSLKLSAVTAADTAVYYCARGLRFLDWLSSYFDYWGQGTLVTVSS
VL: DIQMTQSPSSLSASVGDRVTITCRASQGISDYLAWYQQKPGKVPNLLIYAASALQSGVPSRFSGSGSGTDFTLTISSLQPEDVATYYCQNYNTAPLTFGGGTKVEIK
B2: H1H284P: anti-hANGPTL4 antibody, hIgG1 isotype, HCVR/LCVR SEQ ID NOs 90/92 (antibody, V domains shown)
VH: QVQLVESGGGVVQPGRSLRLSCAASGFTFSSYGMHWVRQAPGKGLEWMAVISFDGGNKNNADSVKGRFTISRDNSKNTLYLQMNSLRAEDTAVYYCAKEGDRSGHPYFYYYGLDVWGQGTTVTVS
VL: DIQLTQSPSFLSASVGDRVTITCWASQGISSYLAWYQQKPGKAPKLLIYAASTLQSGVPSRFSGSGSETEFTLTISSLQPEDFATYYCQQLHSYPLTFGGGTKVEIK
B3: H4H268P2: IgG4 version of H1H268P with a single amino acid substitution in framework region 1, HCVR/LCVR SEQ ID NOs 487/44 (antibody, V domains shown)
VH: B1 VH with E6Q
VL: B1 VL
modifications: IgG4 constant region

Columns and labels:
[1] = test system: C57BL/6 mice given hANGPTL4-mFc; type: in vivo; conditions: antibody 5 mg/kg s.c.; 24 h later hANGPTL4-mFc 25 μg/mouse i.v.; bled 30 min after; mean±SEM
Description: In another set of experiments, selected anti-hANGPTL4 antibodies were tested for their ability to inhibit hANGPTL4-induced increase of triglyceride levels. Measurements of total cholesterol, LDL, NEFA-C and HDL were also made. Briefly, C57BL/6 mice were put into groups of five mice each for each antibody tested. Antibodies were administered at 5 mg/kg dose by subcutaneous injection. Control group I, i.e., mice that received neither anti-hANGPTL4 antibodies nor hANGPTL4, were administered with PBS. Twenty-four hours post-injection of antibody, hANGPTL4-mFc (SEQ ID NO:480) was administered (i.v.) at a dose of 25 μg/mouse to each antibody group. Mice were bled at 30 min after hANGPTL4-mFc injection and lipid levels were determined by ADVIA® 1650 Chemistry System (Siemens). Averages were calculated for each of the measurements of triglycerides, total cholesterol (Total-C), LDL, NEFA-C and HDL for each antibody or control group. Levels of circulating anti-hANGPTL4 antibodies (Serum Ab) were also determined using a standard ELISA assay. Briefly, plates were coated with a goat anti-human Fc antibody (Sigma-Aldrich) to capture Serum Ab. Serum was then added to the plates and captured anti-hANGPTL4 antibodies were detected by chemiluminescence using a horseradish peroxidase (HRP) conjugated goat anti-human IgG antibody (Sigma-Aldrich). Control I: Mice that received PBS, but neither anti-hANGPTL4 antibodies nor hANGPTL4-mFc. Control II: Mice that received a human antibody specific for CD20 (i.e., the mAb having the sequence of 2F2 clone disclosed in US 2008/0260641) and hANGPTL4-mFc.

hANGPTL4(26-406)-His = biological target: T1, hANGPTL4(26-406)-His; assay: BIACORE, full mAb or Fab over amino-coupled hANGPTL4(26-406)-His; type: binding; conditions: for RU bound at 50 nM mAb or Fab: amino-coupled 450 RU
Description: Briefly, various concentrations (3.125 nM-100 nM) of anti-hANGPTL4 antibodies (i.e., H1H268 Fab, entire H1H268 mAb, H1H284 Fab, and entire H1H284 mAb) were injected over a low density anti-mFc captured hANGPTL4(26-148)-mFc (˜68±4 RU) surface, or the surface of amino-coupled hANGPTL4(26-406)-His (R&D Systems) (450 RU) or amino-coupled cynomolgus monkey N-terminal region (amino acid residues 1-130 of SEQ ID NO:490) expressed with an C-terminal hexa-histidine tag (MfANGPTL4(1-130)-His) (1,028 RU). Kinetic analysis was performed to measure ka and kd, and KD values and half-life of antigen/antibody complex dissociation were calculated. The results are shown in Table 4 (H1H268P) and Table 5 (H1H284P).

[2] = test system: obese rhesus monkeys (Macaca mulatta); assay: Phase I pilot PK/PD study in obese rhesus monkeys; type: in vivo, rhesus monkey (Macaca mulatta)
Description: Phase I: In a pilot non-GLP pharmacokinetics/pharmacodynamic (PK/PD) study, H4H268P2 and H4H284P were administered as a single bolus intravenous (IV) injection, to obese rhesus monkeys (Macaca mulatta). Rhesus monkeys were selected because this species is closely related, both phylogenically and physiologically, to humans and is a species commonly used for nonclinical toxicity evaluations. Obese monkeys that had been on a high fat diet for greater than 6 months were selected because they typically display moderately elevated TG levels (i.e., mean >100 mg/dL; hyper-TG). Eight confirmed healthy, male monkeys were acclimated and assigned to the study for baseline assessment for 7 days prior to dosing. All animals received a vehicle (10 mM histidine, pH 6) IV infusion on Day −5, after which four of them received H4H268P2 and another four H4H284P at 10 mg/kg IV on day 0.
Serum samples were collected from the baseline period through day 35 post-dosing and assessed for serum lipid levels by ADVIA® 1800 Chemistry System (Siemens). The average baseline for each animal was determined based on the samples taken on Days −7, −5 and 0. […] Thus the data analysis was done with 3 animals in each group. Percent (%) changes of serum TG levels from the baseline were determined for each animal and averaged for each Ab group.

humanized ANGPTL4 mice = assay: Serum TG, H4H268P2 and fenofibrate alone or in combination; type: in vivo, mouse; conditions: day 7; H4H268P2 10 mg/kg s.c. day 0; fenofibrate 0.05% (w/w) in chow
Description: The effects of the anti-ANGPTL4 antibody H4H268P2 and TG-reducing drug fenofibrate, each alone or in combination, on serum TG levels were evaluated in humanized ANGPTL4 mice. The mice were pre-bled 7 days before the experiment after 4 hours of fasting and put into 4 groups of six mice each. Groups 2 and 4 were administered with H4H268P2 at 10 mg/kg by subcutaneous injection on day 0 and groups 1 (control group) and 2 were placed on regular chow diet. Groups 3 and 4 received chow diet supplemented with 0.05% (w/w) of fenofibrate (the dosage level was determined experimentally in a pilot study). Serum was collected from a terminal bleed on day 7 after H4H268P2 and/or fenofibrate administration (after 4 hours of fasting) and analyzed by ADVIA® 1800 Chemistry System (Siemens).

| Molecule | HDL [1] [mg/dL] | LDL [1] [mg/dL] | NEFA-C [1] [mg/dL] | Triglycerides [1] [mg/dL] | ka (hANGPTL4(26-406)-His; pH 5.75, 25° C.) [M⁻¹ s⁻¹] | kd (hANGPTL4(26-406)-His; pH 5.75, 25° C.) [s⁻¹] | RU bound at 50 nM mAb or Fab (hANGPTL4(26-406)-His; pH 5.75, 25° C.) | ka (hANGPTL4(26-406)-His; pH 7.2, 25° C.) [M⁻¹ s⁻¹] | kd (hANGPTL4(26-406)-His; pH 7.2, 25° C.) [s⁻¹] | RU bound at 50 nM mAb or Fab (hANGPTL4(26-406)-His; pH 7.2, 25° C.) | Total-C [1] [mg/dL] | additional lipids, such as LDL-C and HDL-C, in words ([2]; 10 mg/kg IV) | total-C, in words ([2]; 10 mg/kg IV) | injection site reactions or other adverse effects ([2]; 10 mg/kg IV, any time point after infusion) | maximal reduction of serum TG from baseline ([2]; day 4 post-dosing, 10 mg/kg IV, three mildly hyper-TG animals) [%] | fasting TG's or any other lipid parameters, in words ([2]; single obese animal with low TG levels, 10 mg/kg IV) | mean serum TG levels ([2]; until approximately Day 25, 10 mg/kg IV, three mildly hyper-TG animals) [mg/dL] | TG levels reduced (mean) compared to control group on chow diet (humanized ANGPTL4 mice) [%] |
| --- | --- | --- | --- | --- | --- | --- | --- | --- | --- | --- | --- | --- | --- | --- | --- | --- | --- | --- |
| B1 | 35.94 ± 1.64 | 4.94 ± 0.51 | 0.82 ± 0.04 | 92.60 ± 11.44 | 923000 | 0.000446 | 45 | 489000 | 0.0002 | 38 | – | – | – | – | – | – | – | – |
| B2 | 39.60 ± 3.46 | 4.98 ± 0.87 | 0.99 ± 0.11 | 99.20 ± 9.52 | 1.93e+06 | 0.000272 | 101 | 850000 | 8.85e-05 | 77 | 80.80 ± 6.40 | – | – | – | – | – | – | – |
| B3 | – | – | – | – | – | – | – | – | – | – | – | Moderate effects | unchanged | No injection site reactions or other adverse effects were observed | 57 | did not yield any significant effect | ≤ 100 | ~40 |
